# Columns and labels:
# Type in all cases: biochemical
# [1] = Carboxylate reductase activity assay, pimelate semialdehyde to heptanedial (NADPH consumption, absorbance at 340 nm); settings: purified enzyme enhanced by the gene product of sfp, 2 mM pimelate semialdehyde, 1 mM ATP, 1 mM NADPH, pH=7.5, room temperature, 20 min; against the empty vector control; FIG. 13
# Description: The N-terminal His-tagged carboxylate reductase of SEQ ID NO 7 (see Example 4 and FIG. 7F) was assayed using pimelate semialdehyde as substrate. The enzyme activity assay was performed in triplicate in a buffer composed of a final concentration of 50 mM HEPES buffer (pH=7.5), 2 mM pimelate semialdehyde, 10 mM MgCl2, 1 mM ATP and 1 mM NADPH. The enzyme activity assay reaction was initiated by adding purified carboxylate reductase and phosphopantetheine transferase or the empty vector control to the assay buffer containing the pimelate semialdehyde and then incubated at room temperature for 20 min. The consumption of NADPH was monitored by absorbance at 340 nm.
# [2] = Carboxylate reductase activity assay, N7-acetyl-7-aminoheptanoate to N7-acetyl-7-aminoheptanal (NADPH consumption, absorbance at 340 nm); settings: purified enzyme enhanced by the gene product of sfp, 2 mM N7-acetyl-7-aminoheptanoate, 1 mM ATP, 1 mM NADPH, pH=7.5, room temperature, 20 min; against the empty vector control; FIG. 12
# Description: The activity of each of the N-terminal His-tagged carboxylate reductases of SEQ ID NOs: 3, 6, and 7 (see Examples 4, and FIGS. 7B, 7E, and 7F) for converting N7-acetyl-7-aminoheptanoate to N7-acetyl-7-aminoheptanal was assayed in triplicate in a buffer composed of a final concentration of 50 mM HEPES buffer (pH=7.5), 2 mM N7-acetyl-7-aminoheptanoate, 10 mM MgCl2, 1 mM ATP, and 1 mM NADPH. The assays were initiated by adding purified carboxylate reductase and phosphopantetheine transferase or the empty vector control to the assay buffer containing the N7-acetyl-7-aminoheptanoate then incubated at room temperature for 20 min. The consumption of NADPH was monitored by absorbance at 340 nm.
# [3] = Carboxylate reductase activity assay, pimelate to pimelate semialdehyde (NADPH consumption, absorbance at 340 nm); settings: purified enzyme enhanced by the gene product of sfp, 2 mM pimelate, 1 mM ATP, 1 mM NADPH, pH=7.5, room temperature, 20 min; against the empty vector control; FIG. 10
# Description: A sequence encoding a HIS-tag was added to the genes from Segniliparus rugosus and Segniliparus rotundus that encode the carboxylate reductases of SEQ ID NOs: 4 and 7, respectively (see FIGS. 7C and 7F), such that N-terminal HIS tagged carboxylate reductases could be produced. Each of the modified genes was cloned into a pET Duet expression vector along with a sfp gene encoding a HIS-tagged phosphopantetheine transferase from Bacillus subtilis, both under the T7 promoter. Each expression vector was transformed into a BL21[DE3] E. coli host and the resulting recombinant E. coli strains were cultivated at 37° C. in a 250 mL shake flask culture containing 50 mL LB media and antibiotic selection pressure, with shaking at 230 rpm. Each culture was induced overnight at 37° C. using an auto-induction media.
# The pellet from each induced shake flask culture was harvested via centrifugation. Each pellet was resuspended and lysed via sonication, and the cell debris was separated from the supernatant via centrifugation. […]
# Enzyme activity assays (i.e., from pimelate to pimelate semialdehyde) were performed in triplicate in a buffer composed of a final concentration of 50 mM HEPES buffer (pH=7.5), 2 mM pimelate, 10 mM MgCl2, 1 mM ATP and 1 mM NADPH. […] The consumption of NADPH was monitored by absorbance at 340 nm.
molecule,measurement,setting,value
"SEQ ID NO 7: Segniliparus rotundus carboxylate reductase, Genbank Accession No. ADG98140.1 (protein, listed as Segniliparus rotundus) MTQSHTQGPQASAAHSRLARRAAELLATDPQAAATLPDPEVVRQATRPGLRLAERVDAILSGYADRPALGQRSFQTVKDPITGRSSVELLPTFDTITYRELRERATAIASDLAHHPQAPAKPGDFLASIGFISVDYVAIDIAGVFAGLTAVPLQTGATLATLTAITAETAPTLFAASIEHLPTAVDAVLATPSVRRLLVFDYRAGSDEDREAVEAAKRKIADAGSSVLVDVLDEVIARGKSAPKAPLPPATDAGDDSLSLLIYTSGSTGTPKGAMYPERNVAHFWGGVWAAAFDEDAAPPVPAINITFLPLSHVASRLSLMPTLARGGLMHFVAKSDLSTLFEDLKLARPTNLFLVPRVVEMLYQHYQSELDRRGVQDGTREAEAVKDDLRTGLLGGRILTAGFGSAPLSAELAGFIESLLQIHLVDGYGSTEAGPVWRDGYLVKPPVTDYKLIDVPELGYFSTDSPHPRGELAIKTQTILPGYYKRPETTAEVFDEDGFYLTGDVVAQIGPEQFAYVDRRKNVLKLSQGEFVTLAKLEAAYSSSPLVRQLFVYGSSERSYLLAVIVPTPDALKKFGVGEAAKAALGESLQKIARDEGLQSYEVPRDFIIETDPFTVENGLLSDARKSLRPKLKEHYGERLEAMYKELADGQANELRDIRRGVQQRPTLETVRRAAAAMLGASAAEIKPDAHFTDLGGDSLSALTFSNFLHDLFEVDVPVGVIVSAANTLGSVAEHIDAQLAGGRARPTFATVHGKGSTTIKASDLTLDKFIDEQTLEAAKHLPKPADPPRTVLLTGANGWLGRFLALEWLERLAPAGGKLITIVRGKDAAQAKARLDAAYESGDPKLAGHYQDLAATTLEVLAGDFSEPRLGLDEATWNRLADEVDFISHPGALVNHVLPYNQLFGPNVAGVAEIIKLAITTRIKPVTYLSTVAVAAGVEPSALDEDGDIRTVSAERSVDEGYANGYGNSKWGGEVLLREAHDRTGLPVRVFRSDMILAHQKYTGQVNATDQFTRLVQSLLATGLAPKSFYELDAQGNRQRAHYDGIPVDFTAESITTLGGDGLEGYRSYNVFNPHRDGVGLDEFVDWLIEAGHPITRIDDYDQWLSRFETSLRGLPESKRQASVLPLLHAFARPGPAVDGSPFRNTVFRTDVQKAKIGAEHDIPHLGKALVLKYADDIKQLGLL",carboxylate reductase activity for converting pimelate semialdehyde to heptanedial,[1],accepted pimelate semialdehyde as substrate
same,carboxylate reductase activity for converting N7-acetyl-7-aminoheptanoate to N7-acetyl-7-aminoheptanal,[2],accepted N7-acetyl-7-aminoheptanoate as substrate
same,carboxylate reductase activity for converting pimelate to pimelate semialdehyde,[3],accepted pimelate as substrate
